Among the data in the supplement of paper PMC12042874 are amyloid nucleation score values, retold here.

± gives the uncertainty stated by the source.

The nature of this series: amyloid nucleation score (Sup35N fusion, yeast selection) (log enrichment); library NNK2; higher = more nucleation; inactive = no reads after selection. In a few lines:
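The nucleation score, computed with DiMSum, is the log enrichment of output over input reads, centred on the mode score of non-aggregating sequences. Sequences with under 100 input reads were dropped. Reads were generated by Illumina sequencing of plasmid inserts from psi-negative yeast with Sup35N fused to peptides of 20 random codons, induced with 100 μM copper sulfate for 24 hours and grown 7 days at 30°C on medium lacking adenine and uracil.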
The substance TRSMSSAPADCVASGT displayed an amyloid nucleation score of -0.512 ± 0.76.

Regarding YTMGLVSFCLQLGSASFDI, the amyloid nucleation score was found to be 3.56 ± 0.12.

As for KILNPERRSNGWVMMKFVVD, the amyloid nucleation score is -0.599 ± 1.

The substance CQLFMQSSRCIRRRFATSAC had an amyloid nucleation score of -0.295 ± 0.76.

Consider YCWWRSWEPKILRCSLVLVK, for which the amyloid nucleation score is 0.281 ± 0.44.

RLSVLD came in with an amyloid nucleation score of 1.34 ± 0.21.

Regarding RLRTKCYFNCCNGHYLEFGG, the amyloid nucleation score was determined as 9.489 ± 0.067.

Consider LAVLGVVDNIV, for which the amyloid nucleation score amounted to 0.516 ± 0.4.

In the case of YGVYVRCYLDGSLWWNFTAW, the amyloid nucleation score result was “inactive”.

For the substance TQSWVAISLVRHRSWGSWLG, the amyloid nucleation score came to 3.57 ± 0.07.

AVLSITMKGVVWKGLSNLCC: the amyloid nucleation score result was “inactive”.

Consider DICNWHLYDNCLSICSGYR, for which the amyloid nucleation score is 0.951 ± 0.81.

In turn, SDVRVLNDQKSGVFC yielded an amyloid nucleation score of 0.706 ± 0.15.

In turn, LHAGPDKSA came in with an amyloid nucleation score of 0.068 ± 0.46.

PCHFVCDCTRMASTTVIHV showed an amyloid nucleation score of 0.01 ± 0.45.

The substance SYPACRNRAVVRARGVVNLW had an amyloid nucleation score of 2.7 ± 0.18.

For RMRCLDSVQGLNLIHTDVSV, the amyloid nucleation score entry was “inactive”.

VWYLFKNAFHMVFKTEWYEG returned an amyloid nucleation score of -1.52 ± 0.54.

LNALIHYVER showed an amyloid nucleation score of 0.842 ± 0.42.

CYHFCYYVLSLVWGQNPVIK came in with an amyloid nucleation score of 0.108 ± 0.65.

As to RCSVVNWDNHVMLALDRVGY, the amyloid nucleation score entry is “inactive”.

With INGPCVYFNFL, the amyloid nucleation score is 6.425 ± 0.057.

On to MLCRNIHRCKMHREPLGVFH, for which the amyloid nucleation score was determined as 0.578 ± 0.81.

For the substance DLFGCFVNCRSRL, the amyloid nucleation score worked out at 2.89 ± 0.092.

Consider RSTLPGRRFFIGNILYN, for which the amyloid nucleation score is -0.578 ± 0.78.

As for MIMLDAEGLYIIPRGVSKFL, the amyloid nucleation score is 1.87 ± 0.11.

For LNLLK, the amyloid nucleation score is -1.18 ± 1.1.

As for VDILGMGRNHM, the amyloid nucleation score was -1.04 ± 0.78.

Substance YMSPAH came in with an amyloid nucleation score of 0.606 ± 0.6.

TLPRSII came in with an amyloid nucleation score of -0.113 ± 1.1.

As for SITMELVYLPYQFMKSRRSW, the amyloid nucleation score was found to be 4.35 ± 0.067.

For KFIPLINIRTQL, the amyloid nucleation score result is “inactive”.

TTILEL came in with an amyloid nucleation score of -0.305 ± 0.79.

In the case of CHIGN, the amyloid nucleation score entry was “inactive”.

Take DYYRPIIGH: the amyloid nucleation score is -0.407 ± 0.28.

LNTTLLTRPVLSSYRGSTAE gave an amyloid nucleation score of 1.23 ± 0.45.

For CVMLMCRGDV, the amyloid nucleation score was found to be 3.87 ± 0.091.

In turn, YILLWVYIHDGLAWSTLLDW registered an amyloid nucleation score of 0.757 ± 0.6.

RWRIARMITPNLPELLSLYR displayed an amyloid nucleation score of 2.93 ± 0.059.

EHLWYLIREIPNHEFKNKLE came in with an amyloid nucleation score of 0.073 ± 0.42.

Substance VQMYCRSSAQPRVAILAMSG came in with an amyloid nucleation score of 1.16 ± 0.12.

Consider CNFLFYPFWCWLSICYFRSM, for which the amyloid nucleation score was determined as 4.55 ± 0.085.

Substance CDGTLCWKPGWYGDQKFERR showed an amyloid nucleation score of 1.32 ± 0.36.

FENDFMRVSCDGSRGILCVL returned an amyloid nucleation score of 2.48 ± 0.11.

Consider RDCICSVYPFAVLMGSQPLA, for which the amyloid nucleation score was determined as 9.086 ± 0.063.

TSDPEFV had an amyloid nucleation score of -0.627 ± 0.49.

The substance LESHLVMRYS had an amyloid nucleation score of -0.307 ± 0.48.

As to LVSYSDVGWPLYWFCSVRVP, the amyloid nucleation score is 1.24 ± 0.2.

LRVQGGWL: the amyloid nucleation score is 1.49 ± 0.34.

For RYHWEVLK, the amyloid nucleation score was 0.082 ± 1.

As for ELYWGS, the amyloid nucleation score is 0.509 ± 0.57.

Take YDRDCTRPCSPSSRGNFRDE: the amyloid nucleation score entry is “inactive”.

Regarding QSYRVPKLFMNAAE, the amyloid nucleation score came to 0.197 ± 0.57.

Take VAKLLMAGVVKPCRGGRCVG: the amyloid nucleation score was 0.936 ± 0.16.

Consider FQNGQDGYGESLV, for which the amyloid nucleation score is -0.898 ± 1.1.

In turn, LVSFGPLMDQGSCIALHSRR had an amyloid nucleation score of 0.162 ± 0.31.

In the case of ASYRKWNTCPIMYEVSCRYY, the amyloid nucleation score entry was “inactive”.

Consider CLSMFTVWSLAFASLSVTMR, for which the amyloid nucleation score was -0.034 ± 0.45.

In turn, SNDLTCTYVRIQCWAMEPAS yielded an amyloid nucleation score of 5.142 ± 0.039.

Turning to HFTYGSSFIL, the amyloid nucleation score was 3.53 ± 0.069.

As to AEVCEVRTFVPYSCLFYSST, the amyloid nucleation score is 5.22 ± 0.06.

Consider YHYGNGVAWDMTRKPRHHFV, for which the amyloid nucleation score was -0.243 ± 0.41.

Regarding TGNVTGRLFWNVFVRYSGVL, the amyloid nucleation score was -0.03 ± 0.55.

IANWSKYSASTCLVMTHAMA came in with an amyloid nucleation score of -0.302 ± 0.28.

Take GLAEYRS: the amyloid nucleation score is -0.488 ± 0.64.

Substance HPFVSDCVMDLKFTVVTGLV registered an amyloid nucleation score of 0.086 ± 0.3.

FKGVCCMHNELASIDQWVGG: the amyloid nucleation score turned out to be 0.192 ± 0.56.

Substance PKRSCLVLGYNIVITDMQAR registered an amyloid nucleation score of 6.28 ± 0.067.

YRDNCMRNIENSVT displayed an amyloid nucleation score of -0.802 ± 0.54.

Turning to DIVQIWCWFRGC, the amyloid nucleation score was found to be 10.25 ± 0.029.

Regarding KLMFRHV, the amyloid nucleation score was found to be 5.01 ± 0.081.

Substance WDLLRVM yielded an amyloid nucleation score of 0.312 ± 0.8.

As to TDKIWSCHLGQTAWLSKSSG, the amyloid nucleation score was 0.385 ± 0.33.

In turn, STCGEAVKTFLVGLFELFMV displayed an amyloid nucleation score of 0.452 ± 0.66.

Regarding EYEYGGYNSMNLNYIVARSE, the amyloid nucleation score stood at 0.218 ± 0.48.

In the case of IFGFGL, the amyloid nucleation score came out at 2.85 ± 0.2.

In the case of FPTFQSLRDPRHMLFRGNFM, the amyloid nucleation score was -0.317 ± 1.1.

Substance RIGDRSCSVRKEHKDAQWSI yielded an amyloid nucleation score of 0.196 ± 0.77.

Turning to LRKIYFWWAATNALLEMRGW, the amyloid nucleation score came to 0.057 ± 0.38.

As to RFVKTGYTYDLVGTVLHCLS, the amyloid nucleation score came out at 5.97 ± 0.054.

As to ISNGYPVDRHSWVNILSLT, the amyloid nucleation score amounted to 1.23 ± 0.47.

For NISMTTWW, the amyloid nucleation score was determined as 4.71 ± 0.11.

IIALLYIKMTSTLVTVRKSL: the amyloid nucleation score turned out to be 0.297 ± 0.5.

Turning to LRQGPTHFLYLGCYFVDAMR, the amyloid nucleation score is 7.119 ± 0.066.

In turn, LTPEFSVCGCRTEG registered an amyloid nucleation score of 2.65 ± 0.072.

For TVLLGHLEGRVYWEPMIQQV, the amyloid nucleation score came to 0.36 ± 0.64.

RWTKGCDSNCIWF returned an amyloid nucleation score of -0.502 ± 0.25.

Consider CNPIGIMHN, for which the amyloid nucleation score entry is “inactive”.

QCLHSWDWLKSWFVFVGRGE returned an amyloid nucleation score of 3.88 ± 0.066.

FSLFCPWRKWLLDEVFM returned an amyloid nucleation score of 0.5 ± 0.27.

Substance QTRTQEFFRSFNKVFTQ registered an amyloid nucleation score of 2.59 ± 0.061.

In the case of GGMVVPGKYRDRGY, the amyloid nucleation score is -0.227 ± 0.26.

NVIMMDLWVDLAFKSLGYG had an amyloid nucleation score of 6.291 ± 0.046.

In the case of DVLGLSGACFGITERVDRLA, the amyloid nucleation score was determined as 2.32 ± 0.1.

Take LSGSY: the amyloid nucleation score is -0.305 ± 1.1.

The substance ILAYPFRCIETNSLLKMSPL had an amyloid nucleation score of 0.402 ± 0.8.

WYMKILFGKRFSFGGVVSIF yielded an amyloid nucleation score of 3.74 ± 0.11.

On to GCHSWSNLGEWCCYIYKMVI, for which the amyloid nucleation score is -1.14 ± 0.78.

As to VTFFTAFLTFVYCCMMLMYM, the amyloid nucleation score came out at 7.32 ± 0.078.

TCYTTSVRNSTS had an amyloid nucleation score of 0.082 ± 0.36.

Substance VNWRLKHWLGEDDPLPVTSF came in with an amyloid nucleation score of -0.267 ± 0.63.

SGPWTSWLVSLG showed an amyloid nucleation score of -0.003 ± 1.1.

Regarding YSHSLHVIQKSFFCITVFVM, the amyloid nucleation score worked out at 5.28 ± 0.08.

Substance LQCYPWIYGGSGHPYRFWNL had an amyloid nucleation score of -0.331 ± 0.8.

VTRPMDDTRVRVSNCVDWII showed an amyloid nucleation score of 0.511 ± 0.38.

In the case of GADAGDCPRNHSCAMHAEGF, the amyloid nucleation score was determined as 1.13 ± 0.46.

For the substance CFGISSS, the amyloid nucleation score is -1.12 ± 0.36.

In turn, KTFRCRRCGNN gave an amyloid nucleation score of 0.721 ± 0.6.

The substance MCVGNYVLRFLALPPSGCNM displayed an amyloid nucleation score of -0.806 ± 0.36.

Take VFSNDASDNTRGRWLGYGFF: the amyloid nucleation score result is “inactive”.

In turn, VGRCTINFIRLRDWVRLRQN came in with an amyloid nucleation score of -0.082 ± 0.6.

With CLRGDNKISLDRSGGMTFGQ, the amyloid nucleation score was 1.79 ± 0.18.

PLDPHCVFPIDNTSMMRVV gave an amyloid nucleation score of 0.295 ± 0.32.

In turn, TRGIVGFPD yielded an amyloid nucleation score of 3.93 ± 0.067.

The substance ADWQYHSVYMNTVRDKCLAQ had an amyloid nucleation score of -0.06 ± 0.28.

Consider VYYIYQLEWSDVFFSAYGVH, for which the amyloid nucleation score is -0.072 ± 0.76.

The substance YPVCGCRLSRLVHNSTVDKV showed an amyloid nucleation score of 0.639 ± 0.46.

Take HTTDFIVLMVRSDASIRLWS: the amyloid nucleation score was found to be 4.1 ± 0.077.

On to IWDEQCRTLCGARCNDVSAW, for which the amyloid nucleation score amounted to 0.799 ± 0.3.

Substance VWWVAFYSGTKI gave an amyloid nucleation score of 0.019 ± 1.1.

As for PGSVWFSLTSMHE, the amyloid nucleation score came out at 0.623 ± 0.66.

FIGVSGLRCRGVMCSCYASY displayed an amyloid nucleation score of 1.53 ± 0.17.

As for RCNWTSNFFQYMYKNRPNNG, the amyloid nucleation score result was “inactive”.

Substance VLRNKVVCSYQLYLRWFGKD registered an amyloid nucleation score of 1.64 ± 0.37.

Take SLTGSQSGQGDLCVLVRYNH: the amyloid nucleation score was found to be 3.84 ± 0.12.

With CTRVLW, the amyloid nucleation score was -0.201 ± 0.32.

For DDNVLYCYSYVVHESLSAAQ, the amyloid nucleation score is 0.354 ± 0.3.

The substance LSRWKDRSRGWRGDAAPRIR displayed an amyloid nucleation score of 0.539 ± 0.56.

Regarding DSVIWVCIVWRRSSSTMCVM, the amyloid nucleation score was determined as 1.01 ± 0.38.

The substance SYFGSAHKVAEAHL came in with an amyloid nucleation score of 0.377 ± 0.45.

Consider YCVSPELDWTSIARGHTFNV, for which the amyloid nucleation score was -0.509 ± 1.1.

Regarding MHSLISELLLPNTIFGSAGI, the amyloid nucleation score was -0.707 ± 0.76.

Regarding FLFVNDVGRE, the amyloid nucleation score result was “inactive”.

Regarding GIYGSGIAFRRSGGWWEVCS, the amyloid nucleation score result is “inactive”.

For RSIRCVYKF, the amyloid nucleation score is -0.465 ± 0.29.

WRVSSSI came in with an amyloid nucleation score of -0.706 ± 0.76.

For EVMCMSRYDPR, the amyloid nucleation score is -0.557 ± 1.1.

In turn, PTYFWKQQCWVHYICWIMSY displayed an amyloid nucleation score of -1.15 ± 0.35.

Turning to SSYGIFVVGMLGSCRVQSRF, the amyloid nucleation score was 3.79 ± 0.041.

The substance PEMWHYMRFSSIKIRLTSKF returned an amyloid nucleation score of -0.016 ± 0.65.

VYYLVSLGLT registered an amyloid nucleation score of 1.91 ± 0.14.
